Laboratory results as given in doi:10.1101/2022.04.29.490036.

Biological target: S. lophii 70 S ribosome (Spraguea lophii (endogenous in spores))
Assay: cryo-EM structure

Substance S. lophii 70 S ribosome (complex) has a percent of particles in the monomeric class of 1.6% and a stoichiometry N of 2.
